This data set is described as follows: protein stability index of a GFP-peptide fusion (yeast GPS) (PSI 1-4); higher = more stable; sorted into four equal gates, so the index is relative within each strain. An outline of the steps: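 Tiled 17-residue yeast protein peptides were fused downstream of GFP in a plasmid that also expresses Cherry, and the pooled library was carried in yeast. Mid-log cultures in leucine-free medium were sorted into four equal gates by GFP/Cherry fluorescence ratio, and plasmids from each gate were PCR-amplified and Illumina-sequenced, with reads assigned to strains by barcodes. The protein stability index for each peptide was each gate's read frequency times its gate number, summed.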

16 sequences from the supplement of paper PMC9732359 can be followed below.

± gives the uncertainty stated by the source.

In the case of YSIALSNVAAIFKGIGG [GAL11], the protein stability index was 1.52 ± 0.08 (doa10∆), 1.55 ± 0.076 (pdr5∆), 1.38 ± 0.18 (san1∆) and 1.48 ± 0.048 (ubr1∆).
The corresponding values for YSNEPFNTNFDDEFGDL [SNF6] are 3.02 ± 0.1, 3 ± 0.093, 2.99 ± 0.059 and 3.06 ± 0.042.
In the case of YSPIEKESPWKILMYQY [RRP6], the protein stability index was found to be 1.75 ± 0.063 (doa10∆), 1.89 ± 0.062 (pdr5∆), 1.35 ± 0.11 (san1∆) and 1.44 ± 0.054 (ubr1∆).
On to YSPSNEISISFDVNNID [YDL116W/NUP84], for which the protein stability index is, setting by setting: (doa10∆) 2.4 ± 0.095; (pdr5∆) 2.62 ± 0.071; (san1∆) 2.31 ± 0.12; (ubr1∆) 2.58 ± 0.067.
On the same counts, the results for YSPTSPSYSPTSPGYSP [RPO21] are 2.8 ± 0.044, 2.94 ± 0.037, 2.95 ± 0.039 and 2.95 ± 0.034.
On the same counts, the results for YSPTSPSYSPTSPSYSP [RPO21] are 2.756 ± 0.027, 2.976 ± 0.026, 2.87 ± 0.024 and 2.868 ± 0.02.
The corresponding values for YSQSPPRSPGRSPTRRL [SMC4] are 2.57 ± 0.15, 3.19 ± 0.11, 2.98 ± 0.089 and 3.04 ± 0.11.
In the case of YSTCPSETDLNDIPLGS [SRB8], the protein stability index came to 2.52 ± 0.13 (doa10∆), 2.72 ± 0.18 (pdr5∆), 2.36 ± 0.14 (san1∆) and 2.47 ± 0.078 (ubr1∆).
On the same counts, the results for YSVLLESPLSVAIQQGD [YML103C/NUP188] are 1.23 ± 0.091, 1.16 ± 0.063, 1.2 ± 0.17 and 1.19 ± 0.077.
On the same counts, the results for YTEFIDSFIEKIIPKDI [ITC1] are 2.79 ± 0.12, 2.11 ± 0.1, 1.76 ± 0.12 and 1.81 ± 0.053.
The corresponding values for YTEQFQHYKNNSISSQP [SSN2] are 2.76 ± 0.14, 2.95 ± 0.11, 3.09 ± 0.15 and 2.98 ± 0.1.
YTFKTSMRVKPSASLKL [YMR129W/POM152]: the protein stability index is, setting by setting: (doa10∆) 2.42 ± 0.16; (pdr5∆) 2.6 ± 0.11; (san1∆) 2.31 ± 0.14; (ubr1∆) 2.8 ± 0.097.
The corresponding values for YVDFVPMYKELWINYIK [POP4] are 2.33 ± 0.065, 2.42 ± 0.056, 2.62 ± 0.068 and 2.7 ± 0.047.
For the sequence YVQVRQPIFVAHTAGRY [RPS5], the protein stability index reads like this: (doa10∆) 1.7 ± 0.064; (pdr5∆) 1.84 ± 0.059; (san1∆) 1.89 ± 0.11; (ubr1∆) 1.74 ± 0.068.
On the same counts, the results for YYNEISRDLDISSSTQC [POP6] are 1.95 ± 0.091, 2.56 ± 0.073, 2.25 ± 0.093 and 2.3 ± 0.043.
The corresponding values for YYYNTKIYKLENGERKL [YMR129W/POM152] are 3.03 ± 0.05, 3.26 ± 0.069, 3.1 ± 0.069 and 3.18 ± 0.04.
